Test results: US9550980B2, “Composition and methods for the production of L-homoalanine” (The Regents of the University of California, priority 2010, dated 2017)

Tests used:
threonine = assay: Production of L-homoalanine from glucose by E. coli overexpressing GDH2 and threonine dehydratases; type: cell-based, Escherichia coli; details: ATCC98082, overexpressed in combination with GDH2
Excerpt: FIG. 5A is a graph with horizontal axis labels defined as follows: (1) BW25113; (2) BW25113 with overexpression of GDH2; (3) ATCC98082 with overexpression of TdcB & GDH2; (4) ATCC98082 with overexpression of IlvAEc & GDH2; (5) ATCC98082 with overexpression of IlvABS & GDH2; and (6) ATCC98082 (ArhtA) with overexpression of IlvABS and GDH2. FIG. 5B is a graph showing the yield of L-homolalanine biosynthesis from glucose. The error bars represent standard deviations from three independent experiments.
To test the production of L-homoalanine from glucose, E. coli strain ATCC98082 harboring plasmid pZS_thrO (see, e.g. Zhang et al. (2008) Proc Natl Acad Sci USA 105(52):20653-20658) was transformed with pZElac_tdcB_GDH, pZElac_ilvAEC_GDH and pZElac_ilvABS_GDH. These transformants were subjected to fermentation using the following production medium: 30 g glucose, 17 g (NH4)2SO4, 2 g KH2PO4, 1 g MgSO4.7H2O, 2 g yeast extract, 0.1 g L-valine, 0.01 g FeSO4:7H2O and 0.01 g MnSO4:7H2O per liter. Antibiotics were added appropriately (ampicillin 50 mg/L, spectinomycin 25 mg/L). Overnight 2XYT culture were diluted 25× into fermentation medium and 0.1 mM isopropyl-b-D-thiogalactoside (IPTG) was added to induce protein expression. In shake flask experiments, the culture medium was buffered by addition of 30 g/L CaCO3. Cultures were incubated in 33° C. shaker (250 rpm) for 40-50 h until glucose was consumed.

2-ketobutyrate = assay: Conversion of fed 2-ketobutyrate to L-homoalanine by E. coli BW25113 overexpressing amination enzymes; type: cell-based, Escherichia coli; set-up: L-homoalanine produced: unit not given here; details: for L-homoalanine produced: 10 g/L 2-ketobutyrate fed, M9 medium, 37° C., 24 h
Description: FIG. 2 is a graph comparing different amination enzymes on the production of L-homoalanine. E. coli cultures were inoculated in M9 medium with addition of 10 g/L 2-ketobutyrate and incubated at 37° C. for 24 h. The horizontal axis labels are defined as follows: (A) Wild-type E. coli BW25113; overexpression of (B) transaminase IlvE (C) valine dehydrogenase from Streptomyces avermitilis; (D) valine dehydrogenase from Streptomyces coelicolor, (E) valine dehydrogenase from Streptomyces fradiae; (F) evolved glutamate dehydrogenase GDH1; and (G) evolved glutamate dehydrogenase GDH2. The error bars represent standard deviations from three independent experiments.
In order to check if any endogenous transaminase of E. coli can work on 2-ketobutyrate, we fed 10 g/L 2-ketobutyrate to wildtype E. coli strain BW25113 growing in M9 medium. […] Since the branched-chain amino acid aminotransferase IlvE (see, e.g. Inoue K, et al. (1988) J Biochem 104(5):777-784) is likely to be a functional candidate, we cloned and overexpressed IlvE in BW25113, which increased the production of L-homoalanine to […] (FIG. 2B). […] However, high concentration of glutamate is needed to drive the reaction equilibrium because transamination is a reversible reaction process. Even under such extreme conditions, the conversion rate of transaminating 2-ketobutyrate to L-homoalanine is only 32%.
To test the conversion of 2-ketobutyrate to L-homoalanine, plasmids pZElac_IlvE, pZElac_VDHsa, pZElac_VDHsc, pZElac_VDHsf, pZElac_GDH and pZElac_GDH2 were transformed into BW25113. The transformants were inoculated in M9 medium with 5 g/L yeast extract, 10 g/L ammonium hydrochloride and 20 g/L glucose. Once OD reached ˜1.0, 10 g/L 2-ketobutyrate plus 0.1 mM IPTG were added and incubated at 37° C. for 24 h. Amino acids were quantified as o-phthaldialdehyde (OPA) derivatives by HPLC analysis.

[1] = Enzymatic assay of purified glutamate dehydrogenases, amination of 2-ketobutyrate (NADPH consumption at 340 nm); type: biochemical; details: 100 mM Tris pH 8.0, 0.2M NH4Cl, 0.2 mM NADPH
Description: To characterize the enzymes, both the wild-type glutamate dehydrogenase GDHwt and mutant GDH2 were added an N-terminal 6×His-tag, overexpressed, and purified through Ni-NTA columns. The kinetic parameters for […] of 2-ketoglutarate (cognate substrate) and 2-ketoisovalerate or 2-ketobutyrate (nonnatural substrates) were determined by monitoring the consumption of NADPH at 340 nm (FIG. 6). […] The increase in binding affinity is very helpful since high concentration of 2-ketobutyrate interferes with cellular metabolic activities (see, e.g. Daniel et al. (1983) Mol Gen Genet 190(3):452-458). On the basis of the crystallographic model for the active site of GDH, amino group of K92 hydrogenbonds to the γ-carboxyl group of 2-ketoglutarate and determines the substrate specificity (see, e.g. Stillman et al. (1993) J Mol Biol 234(4):1131-1139). Mutation of lysine to valine increases the hydrophobic character of the binding pocket, which explains why the specificity constant kcat/Km of GDH2 towards 2-ketobutyrate is 50-fold higher than that towards the natural substrate 2-ketoglutarate.
Both gene fragments encoding wildtype glutamate dehydrogenase and GDH2 were amplified using primers GDHbamfwd and GDHbamrev. After digestion with BamHI, the gene fragments were inserted into expression plasmid pQE9 (Qiagen). The resulting expression plasmids were transformed into E. coli strain BL21(DE3) harboring pREP4 (Qiagen). Cells were inoculated from an overnight preculture at 1/100 dilution and grown in 200 mL 2XYT rich medium containing 50 mg/L ampicillin and 25 mg/L kanamycin. At an OD600 of 0.6, recombinant proteins were expressed by induction of the cell cultures with 0.1 mM IPTG, followed by incubation at 30° C. overnight. Overexpressed proteins were then purified with Ni-nitrilotriacetic acid columns. Protein concentration was determined by measuring UV absorbance at 280 nm.
Enzymatic assay was performed in assay buffer (100 mM Tris buffer, pH 8.0) containing 0.2M NH4Cl, 0.2 mM NADPH, and various concentrations of 2-ketoacids. The reactions were started by adding the purified enzymes, and the consumption of NADPH was monitored at 340 nm (extinction coefficient, 6.22 mM^−1 cm^−1). Kinetic parameters (kcat and Km) were determined by fitting initial velocity data to the Michaelis-Menten equation using Origin.

Row | Molecule | L-homoalanine produced from glucose (threonine) | threonine remaining in fermentation medium (threonine) | L-homoalanine produced (2-ketobutyrate; BW25113 transformant) | further results
1 | IlvABS: biosynthetic threonine dehydratase IlvA from Bacillus subtilis (protein, listed as Bacillus subtilis) MKPLLKENSLIQVKDILKAHQNVKDVVIHTPLQRNDRLSERYECNIYLKREDLQVVRSFKLRGAYHKMKQLSSEQTENGVVCASAGNHAQGVAFSCKHLGIHGKIFMPSTTPRQKVSQVELFGKGFIDIILTGDTFDDAYKSAAECCEAESRTFIHPFDDPDVMAGQGTLAVEILNDIDTEPHFLFASVGGGGLLSGVGTYLKNVSPDTKVIAVEPAGAASYFESNKAGHVVTLDKIDKFVDGAAVKKIGEETFRTLETVVDDILLVPEGKVCTSILELYNECAVVAEPAGALSVAALDLYKDQIKGKNVVCVVSGGNNDIGRMQEMKERSLIFEGLQHYFIVNFPQRAGALREFLDEVLGPNDDITRFEYTKKNNKSNGPALVGIELQNKADYGPLIERMNKKPFHYVEVNKDEDLFHLLI | 3.8 g/L | 2.5 g/L |  | 
2 | TdcB: catabolic threonine dehydratase of E. coli (protein, listed as Escherichia coli) MHITYDLPVAIDDIIEAKQRLAGRIYKTGMPRSNYFSERCKGEIFLKFENMQRTGSFKIRGAFNKLSSLTDAEKRKGVVACSAGNHAQGVSLSCAMLGIDGKVVMPKGAPKSKVAATCDYSAEVVLHGDNFNDTIAKVSEIVEMEGRIFIPPYDDPKVIAGQGTIGLEIMEDLYDVDNVIVPIGGGGLIAGIAVAIKSINPTIRVIGVQSENVHGMAASFHSGEITTHRTTGTLADGCDVSRPGNLTYEIVRELVDDIVLVSEDEIRNSMIALIQRNKVVTEGAGALACAALLSGKLDQYIQNRKTVSIISGGNIDLSRVSQITGFVDA | 0.18 g/L | 3.7 g/L |  | glutamate accumulated (threonine): 4 g/L
3 | GDH1 (protein, UniProt P07262 2-454, looked up) NADP-specific glutamate …: SEPEFQQAYEEVVSSLEDSTLFEQHPEYRKVLPIVSVPERIIQFRVTWENDKGEQEVAQGYRVQYNSAKGPYKGGLRFHPSVNLSILKFLGFEQIFKNSLTGLDMGGGKGGLCVDLKGRSNNEIRRICYAFMRELSRHIGQDTDVPAGDIGVGGREIGYLFGAYRSYKNSWEGVLTGKGLNWGGSLIRPEATGYGLVYYTQAMIDYATNGKESFEGKRVTISGSGNVAQYAALKVIELGGTVVSLSDSKGCIISETGITSEQVADISSAKVNFKSLEQIVNEYSTFSENKVQYIAGARPWTHVQKVDIALPCATQNEVSGEEAKALVAQGVKFIAEGSNMGSTPEAIAVFETARSTATGPSEAVWYGPPKAANLGGVAVSGLEMAQNSQRITWTSERVDQELKRIMINCFNECIDYAKKYTKDGKVLPSLVKGANIASFIKVSDAMFDQGDVF |  |  | 1.6 | 
4 | GDHwt: wild-type glutamate dehydrogenase of E. coli, N-terminal 6×His-tag (protein, listed as Escherichia coli, N-terminal 6xHis tag, wild-type glutamate dehydrogenase of E. coli, N-terminal 6×His-tag) MDQTYSLESFLNHVQKRDPNQTEFAQAVREVMTTLWPFLEQNPKYRQMSLLERLVEPERVIQFRVVWVDDRNQIQVNRAWRVQFSSAIGPYKGGMRFHPSVNLSILKFLGFEQTFKNALTTLPMGGGKGGSDFDPKGKSEGEVMRFCQALMTELYRHLGADTDVPAGDIGVGGREVGFMAGMMKKLSNNTACVFTGKGLSFGGSLIRPEATGYGLVYFTEAMLKRHGMGFEGMRVSVSGSGNVAQYAIEKAMEFGARVITASDSSGTVVDESGFTKEKLARLIEIKASRDGRVADYAKEFGLVYLEGQQPWSLPVDIALPCATQNELDVDAAHQLIANGVKAVAEGANMPTTIEATELFQQAGVLFAPGKAANAGGVATSGLEMAQNAARLGWKAEKVDARLHHIMLDIHHACVEHGGEGEQTNYVQGANIAGFVKVADAMLAQGVI |  |  |  | kcat towards 2-ketobutyrate [1]: 47.2 s⁻¹; Km ([1]; read-out: Km towards 2-ketobutyrate): 35.4 mM
5 | IlvE: branched-chain amino acid aminotransferase of E. coli (protein, UniProt P0AB80 2-309, looked up) Branched-chain-amino-acid …: TTKKADYIWFNGEMVRWEDAKVHVMSHALHYGTSVFEGIRCYDSHKGPVVFRHREHMQRLHDSAKIYRFPVSQSIDELMEACRDVIRKNNLTSAYIRPLIFVGDVGMGVNPPAGYSTDVIIAAFPWGAYLGAEALEQGIDAMVSSWNRAAPNTIPTAAKAGGNYLSSLLVGSEARRHGYQEGIALDVNGYISEGAGENLFEVKDGVLFTPPFTSSALPGITRDAIIKLAKELGIEVREQVLSRESLYLADEVFMSGTAAEITPVRSVDGIQVGEGRCGPVTKRIQQAFFGLFTGETEDKWGWLDQVNQ |  |  | 1.2 | L-homoalanine titer (2-ketobutyrate; BW25113 transformant, 10 g/L 2-ketobutyrate plus additional 10 g/L glutamate): 3.2 g/L; conversion rate of 2-ketobutyrate to L-homoalanine (2-ketobutyrate; with 10 g/L glutamate as amino donor): 32%
